We go through three molecules from article PMC5769772.

In data set [1] the target is T1, hnRNPF (recombinant) (human, UniProt P52597 1-415).
T1 sequence: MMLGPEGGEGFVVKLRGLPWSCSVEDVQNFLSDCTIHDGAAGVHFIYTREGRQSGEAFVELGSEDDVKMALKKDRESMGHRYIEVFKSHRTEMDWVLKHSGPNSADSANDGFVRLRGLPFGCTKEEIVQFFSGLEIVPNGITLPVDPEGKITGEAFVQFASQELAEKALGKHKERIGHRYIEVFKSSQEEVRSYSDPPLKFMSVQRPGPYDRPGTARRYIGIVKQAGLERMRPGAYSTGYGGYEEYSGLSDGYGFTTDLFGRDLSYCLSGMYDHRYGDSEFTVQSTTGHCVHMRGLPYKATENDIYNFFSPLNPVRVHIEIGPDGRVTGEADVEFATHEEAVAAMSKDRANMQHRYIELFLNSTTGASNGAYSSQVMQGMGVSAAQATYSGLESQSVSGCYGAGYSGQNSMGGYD
The experiment in a line: EMSA. On the technique in general: A gel shift assay detects complexes by their altered migration in electrophoresis.

For data set [2], the target named is T1, hnRNPF (recombinant). The experiment in a line: EMSA. This is another data set of the same source.
Data set [3] concerns the target T1, hnRNPF (recombinant). The experiment in a line: pull-down.

Regarding GCUUUGGUGGUGGAAUGGUGCUAUGUGG (structured_RNA) [I-8], in the data set with hnRNPF (recombinant) [1], the binding result is listed as “binds”.

For the molecule GCUUUGAUGAUGAAAUGAUGCUAUGUGG (ssRNA) [I-8 G4m], the binding result with hnRNPF (recombinant) [2] was “no binding”.

With GCUUUGGUGGUGGAAUGGUGCUAUGUGG (structured_RNA) [Biotin-I-8-wt], the binding result with hnRNPF (recombinant) [3] was “binds”.
